The text below walks through data of PMC7327521.

Usually Kd stands for the free concentration of one partner at which half of the binding sites on the other are occupied at equilibrium, for simple one-to-one binding.

This assay concerns the target (pY1-CTD)2, FAM-labelled tyrosine-phosphorylated CTD diheptad. The experiment in a line: fluorescence polarisation. In general terms: Polarisation of emitted light reports the rotation of a fluorescent probe.

“Spt6-tSH2 R1281E/S1284A/R1285E (from UniProt Q6FLB1 1250-1444) (domain or fragment)” registered a Kd of 48.3 µM.
